{"source": "patent US11419921B2", "about": "“Methods of treating neurological disorders” (EnClear Therapies, Inc., priority 2018, dated 2022)", "molecules": {"B1": {"name": "Commercial Trypsin: commercial immobilized trypsin, presumably the ThermoFisher immobilized TPCK-trypsin of Example 2 (protein, UniProt P00760 24-246, looked up)", "Serine protease 1": "IVGGYTCGANTVPYQVSLNSGYHFCGGSLINSQWVVSAAHCYKSGIQVRLGEDNINVVEGNEQFISASKSIVHPSYNSNTLNNDIMLIKLKSAASLNSRVASISLPTSCASAGTQCLISGWGNTKSSGTSYPDVLKCLKAPILSDSSCKSAYPGQITSNMFCAGYLEGGKDSCQGDSGGPVVCSGKLQGIVSWGSGCAQKNKPGVYTKVCNYVSWIKQTIASN", "modifications": "TPCK-treated, immobilized on agarose resin"}}, "key": {"(GR)10 [1]": {"test_system": "(GR)10", "experiment": "(GR)10 digestion with immobilized proteases in human cerebrospinal fluid (CSF)", "assay_type": "biochemical", "details": "immobilized enzyme", "description": "(§1) Protease solutions were prepared at 2 mg/mL in sterile PBS with calcium, magnesium and 200 μL ([…]) were applied to 100 μL of pre-washed NHS-activated agarose resin in 0.8 mL centrifuge columns. Reactions were left 1.5 hour at room temperature with end-to-end mixing, after which resins were washed with 12 resin volumes of PBS. Unreacted sites were blocked with 500 μL of 1M ethanolamine for 15 minutes at room temperature and resins were further washed with 24 resin volumes. Resins were stored at 4 degrees in 500 μL of PBS containing 0.05% sodium azide as preservative.\n200 μM of (GR)10 were diluted in human cerebrospinal fluid (CSF) and 400 μL were applied to each immobilized proteases. The reaction was incubated 5 minutes at room temperature with end-to-end mixing. Columns were spun down 1 minute at 1,000 Xg to recover digested GR dipeptides. Columns were washed with 12 resin volumes of PBS. The procedure was repeated with 60 minutes digestion time. 100 μL of each samples were transferred to a clean tube, flash-frozen and subsequently used for LC/MS quantification of GR repeats of different lengths. The remaining 300 μL of each samples were flash-frozen and used to assess neuron toxicity.\n(GR)10 was digested with exemplary immobilized enzymes as described above in the subsection titled “(GR)10 digestion with immobilized proteases in CSF” of Example 3. Clostripain experiments were conducted with and without DTT activation (no DTT during digestion). The results obtained after 5 and 60 minutes of reaction time are presented in Table 25 and shown in FIG. 5 (commercial and in-house immobilized trypsin), FIG. 6 (immobilized elastase, FIG. 7A (immobilized clostripain without DTT) and FIG. 7 (immobilized clostripain with 2.5 mM DTT)."}, "(GR)10 [2]": {"test_system": "(GR)10", "experiment": "(GR)10 digestion with immobilized proteases (NHS-activated agarose resin) in PBS", "assay_type": "biochemical", "details": "normalized", "description": "as §1\n110 μL of 50 μM (GR)10 dipeptide repeats prepared in PBS were added to each immobilized protease and incubated 5 minutes at room temperature with end-to-end mixing. Columns were spun down 1 minute at 1,000 Xg to recover digested GR dipeptides. Columns were washed with 110 μL of PBS to increase (GR)10 recovery. This procedure was repeated with 60 minutes digestion time. 100 μL of each samples were transferred to a new tube and 5 μL of 10% TFA followed by 300 μL of Dilution Solution were added. The reaction mixtures were analyzed by LC/MS to determine the concentration of GR repeats of different lengths."}, "[3]": {"details": "resin wash from 60 min reaction"}}}
{"molecule": "B1", "values": [{"measurement": "(GR)1 (normalized uM)", "setting": "(GR)10 [1]; 5 min reaction", "value": 1117.3, "unit": "µM"}, {"measurement": "(GR)2 (normalized uM)", "setting": "(GR)10 [1]; 5 min reaction", "value": 0.0, "unit": "µM"}, {"measurement": "(GR)3 (normalized uM)", "setting": "(GR)10 [1]; 5 min reaction", "value": 0.0, "unit": "µM"}, {"measurement": "(GR)4 (normalized uM)", "setting": "(GR)10 [1]; 5 min reaction", "value": 0.0, "unit": "µM"}, {"measurement": "(GR)5 (normalized uM)", "setting": "(GR)10 [1]; 5 min reaction", "value": 0.0, "unit": "µM"}, {"measurement": "(GR)6 (normalized uM)", "setting": "(GR)10 [1]; 5 min reaction", "value": 0.0, "unit": "µM"}, {"measurement": "(GR)8 (normalized uM)", "setting": "(GR)10 [1]; 5 min reaction", "value": 0.0, "unit": "µM"}, {"measurement": "(GR)10 (normalized uM)", "setting": "(GR)10 [1]; 5 min reaction", "value": 0.0, "unit": "µM"}, {"measurement": "(GR)1 (normalized uM)", "setting": "(GR)10 [1]; 60 min reaction", "value": 1197.4, "unit": "µM"}, {"measurement": "(GR)2 (normalized uM)", "setting": "(GR)10 [1]; 60 min reaction", "value": 0.0, "unit": "µM"}, {"measurement": "(GR)3 (normalized uM)", "setting": "(GR)10 [1]; 60 min reaction", "value": 0.0, "unit": "µM"}, {"measurement": "(GR)4 (normalized uM)", "setting": "(GR)10 [1]; 60 min reaction", "value": 0.0, "unit": "µM"}, {"measurement": "(GR)5 (normalized uM)", "setting": "(GR)10 [1]; 60 min reaction", "value": 0.0, "unit": "µM"}, {"measurement": "(GR)6 (normalized uM)", "setting": "(GR)10 [1]; 60 min reaction", "value": 0.0, "unit": "µM"}, {"measurement": "(GR)8 (normalized uM)", "setting": "(GR)10 [1]; 60 min reaction", "value": 0.0, "unit": "µM"}, {"measurement": "(GR)10 (normalized uM)", "setting": "(GR)10 [1]; 60 min reaction", "value": 0.0, "unit": "µM"}, {"measurement": "(GR)1", "setting": "(GR)10 [2]; Immobilized - 5 min reaction", "value": 301.2, "unit": "µM"}, {"measurement": "(GR)2", "setting": "(GR)10 [2]; Immobilized - 5 min reaction", "value": 0.0, "unit": "µM"}, {"measurement": "(GR)3", "setting": "(GR)10 [2]; Immobilized - 5 min reaction", "value": 0.0, "unit": "µM"}, {"measurement": "(GR)4", "setting": "(GR)10 [2]; Immobilized - 5 min reaction", "value": 0.0, "unit": "µM"}, {"measurement": "(GR)5", "setting": "(GR)10 [2]; Immobilized - 5 min reaction", "value": 0.0, "unit": "µM"}, {"measurement": "(GR)6", "setting": "(GR)10 [2]; Immobilized - 5 min reaction", "value": 0.0, "unit": "µM"}, {"measurement": "(GR)8", "setting": "(GR)10 [2]; Immobilized - 5 min reaction", "value": 0.0, "unit": "µM"}, {"measurement": "(GR)10", "setting": "(GR)10 [2]; Immobilized - 5 min reaction", "value": 0.0, "unit": "µM"}, {"measurement": "(GR)1", "setting": "(GR)10 [2]; immobilized - 60 min reaction", "value": 308.6, "unit": "µM"}, {"measurement": "(GR)2", "setting": "(GR)10 [2]; immobilized - 60 min reaction", "value": 0.0, "unit": "µM"}, {"measurement": "(GR)3", "setting": "(GR)10 [2]; immobilized - 60 min reaction", "value": 0.0, "unit": "µM"}, {"measurement": "(GR)4", "setting": "(GR)10 [2]; immobilized - 60 min reaction", "value": 0.0, "unit": "µM"}, {"measurement": "(GR)5", "setting": "(GR)10 [2]; immobilized - 60 min reaction", "value": 0.0, "unit": "µM"}, {"measurement": "(GR)6", "setting": "(GR)10 [2]; immobilized - 60 min reaction", "value": 0.0, "unit": "µM"}, {"measurement": "(GR)8", "setting": "(GR)10 [2]; immobilized - 60 min reaction", "value": 0.0, "unit": "µM"}, {"measurement": "(GR)10", "setting": "(GR)10 [2]; immobilized - 60 min reaction", "value": 0.0, "unit": "µM"}, {"measurement": "(GR)1", "setting": "(GR)10 [2]; resin wash from 5 min reaction", "value": 131.9, "unit": "µM"}, {"measurement": "(GR)2", "setting": "(GR)10 [2]; resin wash from 5 min reaction", "value": 0.0, "unit": "µM"}, {"measurement": "(GR)3", "setting": "(GR)10 [2]; resin wash from 5 min reaction", "value": 0.0, "unit": "µM"}, {"measurement": "(GR)4", "setting": "(GR)10 [2]; resin wash from 5 min reaction", "value": 0.0, "unit": "µM"}, {"measurement": "(GR)5", "setting": "(GR)10 [2]; resin wash from 5 min reaction", "value": 0.0, "unit": "µM"}, {"measurement": "(GR)6", "setting": "(GR)10 [2]; resin wash from 5 min reaction", "value": 0.0, "unit": "µM"}, {"measurement": "(GR)8", "setting": "(GR)10 [2]; resin wash from 5 min reaction", "value": 0.0, "unit": "µM"}, {"measurement": "(GR)10", "setting": "(GR)10 [2]; resin wash from 5 min reaction", "value": 0.0, "unit": "µM"}, {"measurement": "(GR)1", "setting": "(GR)10 [2]; [3]", "value": 145.7, "unit": "µM"}, {"measurement": "(GR)2", "setting": "(GR)10 [2]; [3]", "value": 0.0, "unit": "µM"}, {"measurement": "(GR)3", "setting": "(GR)10 [2]; [3]", "value": 0.0, "unit": "µM"}, {"measurement": "(GR)4", "setting": "(GR)10 [2]; [3]", "value": 0.0, "unit": "µM"}, {"measurement": "(GR)5", "setting": "(GR)10 [2]; [3]", "value": 0.0, "unit": "µM"}, {"measurement": "(GR)6", "setting": "(GR)10 [2]; [3]", "value": 0.0, "unit": "µM"}, {"measurement": "(GR)8", "setting": "(GR)10 [2]; [3]", "value": 0.0, "unit": "µM"}, {"measurement": "(GR)10", "setting": "(GR)10 [2]; [3]", "value": 0.0, "unit": "µM"}]}
